Target: myelin basic protein (MBP) (Sigma)
Sequence (P02687 whole entry): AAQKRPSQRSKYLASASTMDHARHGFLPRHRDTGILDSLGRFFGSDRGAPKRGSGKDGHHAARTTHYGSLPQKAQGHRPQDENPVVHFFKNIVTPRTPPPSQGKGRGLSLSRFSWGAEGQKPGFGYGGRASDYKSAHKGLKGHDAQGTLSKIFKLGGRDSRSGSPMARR

| Protein | kinase activity (incorporation of phosphate in MBP, 32P, P81 paper, scintillation counting) |
| --- | --- |
| His and myc epitope tagged human NAK amino acids 1-337 (from pcDNA3.1.NAK(1-337)-Hm, expressed in HEK293 cells) (protein) MASDSPARSLDEIDLSALRDPAGIFELVELVGNGTYGQVYKGRHVKTGQLAAIKVMDVTGDEEEEIKQEINMLKKYSHHRNIATYYGAFIKKNPPGMDDQLWLVMEFCGAGSVTDLIKNTKGNTLKEEWIAYICREILRGLSHLHQHKVIHRDIKGQNVLLTENAEVKLVDFGVSAQLDRTVGRRNTFIGTPYWMAPEVIACDENPDATYDFKSDLWSLGITAIEMAEGAPPLCDMHPMRALFLIPRNPAPRLKSKKWSKKFQSFIESCLVKNHSQRPATEQLMKHPFIRDQPNERQVRIQLKDHIDRTKKKRGEKDETEYEYSGSEEEEEENDSGE | display increased kinase activity (FIG. 4b) |
| recombinant full-length human NAK protein with hexa His and myc epitope tags (from pcDNA3.1.NAK-Hm, expressed in HEK293 cells) (protein) MASDSPARSLDEIDLSALRDPAGIFELVELVGNGTYGQVYKGRHVKTGQLAAIKVMDVTGDEEEEIKQEINMLKKYSHHRNIATYYGAFIKKNPPGMDDQLWLVMEFCGAGSVTDLIKNTKGNTLKEEWIAYICREILRGLSHLHQHKVIHRDIKGQNVLLTENAEVKLVDFGVSAQLDRTVGRRNTFIGTPYWMAPEVIACDENPDATYDFKSDLWSLGITAIEMAEGAPPLCDMHPMRALFLIPRNPAPRLKSKKWSKKFQSFIESCLVKNHSQRPATEQLMKHPFIRDQPNERQVRIQLKDHIDRTKKKRGEKDETEYEYSGSEEEEEENDSGEPSSILNLPGESTLRRDFLRLQLANKERSEALRRQQLEQQQRENEEHKRQLLAERQKRIEEQKEQRRRLEEQQRREKELRKQQEREQRRHYEEQMRREEERRRAEHEQEYIRRQLEEEQRQLEILQQQLLHEQALLLEYKRKQLEEQRQAERLQRQLKQERDYLVSLQHQRQEQRPVEKKPLYHYKEGMSPSEKPAWAKEVEERSRLNRQSSPAMPHKVANRISDPNLPPRSESFSISGVQPARTPPMLRPVDPQIPHLVAVKSQGPALTASQSVHEQPTKGLSGFQEALNVTSHRVEMPRQNSDPTSENPPLPTRIEKFDRSSWLRQEEDIPPKVPQRTTSISPALARKNSPGNGSALGPRLGSQPIRASNPDLRRTEPILESPLQRTSSGSSSSSSTPSSQPSSQGGSQPGSQAGSSERTRVRANSKSEGSPVLPHEPAKVKPEESRDITRPSRPASYKKAIDEDLTALAKELRELRIEETNRPMKKVTDYSSSSEESESSEEEEEDGESETHDGTVAVSDIPRLIPTGAPGSNEQYNVGMVGTHGLETSHADSFSGSISREGTLMIRETSGEKKRSGHSDSNGFAGHINLPDLVQQSHSPAGTPTEGLGRVSTHSQEMDSGTEYGMGSSTKASFTPFVDPRVYQTSPTDEDEEDEESSAAALFTSELLRQEQAKLNEARKISVVNVNPTNIRPHSDTPEIRKYKKRFNSEILCAALWGVNLLVGTENGLMLLDRSGQGKVYNLINRRRFQQMDVLEGLNVLVTISGKKNKLRVYYLSWLRNRILHNDPEVEKKQGWITVGDLEGCIHYKVVKYERIKFLVIALKNAVEIYAWAPKPYHKFMAFKSFADLQHKPLLVDLTVEEGQRLKVIFGSHTGFHVIDVDSGNSYDIYIPSHIQGNITPHAIVILPKTDGMEMLVCYEDEGVYVNTYGRITKDVVLQWGEMPTSVAYIHSNQIMGWGEKAIEIRSVETGHLDGVFMHKRAQRLKFLCERNDKVFFASVRSGGSSQVFFMTLNRNSMMNW | Recombinant NAK protein displays enzymatic (kinase) activity |
| His and myc epitope tagged human NAK amino acids 1-529 (from pcDNA3.1.NAK(1-529)-Hm, expressed in HEK293 cells) (protein) MASDSPARSLDEIDLSALRDPAGIFELVELVGNGTYGQVYKGRHVKTGQLAAIKVMDVTGDEEEEIKQEINMLKKYSHHRNIATYYGAFIKKNPPGMDDQLWLVMEFCGAGSVTDLIKNTKGNTLKEEWIAYICREILRGLSHLHQHKVIHRDIKGQNVLLTENAEVKLVDFGVSAQLDRTVGRRNTFIGTPYWMAPEVIACDENPDATYDFKSDLWSLGITAIEMAEGAPPLCDMHPMRALFLIPRNPAPRLKSKKWSKKFQSFIESCLVKNHSQRPATEQLMKHPFIRDQPNERQVRIQLKDHIDRTKKKRGEKDETEYEYSGSEEEEEENDSGEPSSILNLPGESTLRRDFLRLQLANKERSEALRRQQLEQQQRENEEHKRQLLAERQKRIEEQKEQRRRLEEQQRREKELRKQQEREQRRHYEEQMRREEERRRAEHEQEYIRRQLEEEQRQLEILQQQLLHEQALLLEYKRKQLEEQRQAERLQRQLKQERDYLVSLQHQRQEQRPVEKKPLYHYKEGMSPSE | display increased kinase activity (FIG. 4b) |

Reference: patent US20020019519
